Results reported in US20190234935A1 (Janssen / Centocor, published 2019).

What was measured:
[1] = target: T1, N-terminally flag tagged full-length GFRAL on transiently transfected HEK293F cells (Homo sapiens (Human), UniProt Q6UXV0 19-394); assay: FACS on GFRAL-expressing HEK293F cells, dose response
T1 construct: also called GFRAL-overexpressing HEK293F cells; GFRAL-expressing cells
T1 sequence: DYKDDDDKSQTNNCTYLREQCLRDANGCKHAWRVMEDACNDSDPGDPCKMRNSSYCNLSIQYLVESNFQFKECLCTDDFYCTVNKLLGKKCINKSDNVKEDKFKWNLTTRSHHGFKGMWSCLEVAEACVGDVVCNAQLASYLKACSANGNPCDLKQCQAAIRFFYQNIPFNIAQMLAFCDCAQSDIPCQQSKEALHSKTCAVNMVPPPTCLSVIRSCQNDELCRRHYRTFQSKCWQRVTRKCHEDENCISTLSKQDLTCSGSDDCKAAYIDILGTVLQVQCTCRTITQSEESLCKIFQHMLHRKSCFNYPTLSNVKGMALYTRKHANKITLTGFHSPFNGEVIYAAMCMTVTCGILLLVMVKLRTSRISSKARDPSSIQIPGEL

[2] = target: T2, N-terminally flag tagged full-length GFRα3 on transiently transfected HEK293F cells (Homo sapiens (Human), UniProt O60609 32-374); assay: FACS on transfected HEK293F cells
T2 sequence: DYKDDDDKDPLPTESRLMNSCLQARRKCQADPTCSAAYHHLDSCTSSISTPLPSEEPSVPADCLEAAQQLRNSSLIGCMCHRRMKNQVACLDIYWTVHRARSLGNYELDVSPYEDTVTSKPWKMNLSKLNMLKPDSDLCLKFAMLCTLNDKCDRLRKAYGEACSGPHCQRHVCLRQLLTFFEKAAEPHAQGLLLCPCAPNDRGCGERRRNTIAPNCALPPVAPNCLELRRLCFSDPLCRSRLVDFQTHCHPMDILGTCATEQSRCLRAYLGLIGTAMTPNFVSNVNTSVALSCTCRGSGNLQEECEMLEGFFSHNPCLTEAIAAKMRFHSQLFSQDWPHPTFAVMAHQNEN
Procedure: (§1) For the confirmation of specific binding of GDF15 to GFRAL, HEK293F cells expressing the N-terminally flag tagged GFRAL, GFRα1, GFRα2, GFRα3 or GFRα4 were incubated with Fc-GDF15 and the binding was analyzed by FACS. Briefly, transiently transfected cells were spun down two days post transfection, washed with 1×BD staining buffer (BD Pharmingen) and treated with 5 μg/ml of Fc-GDF15 by incubating at 4° C. for 1 hour in 1×BD staining buffer (BD Pharmingen). Cells were subsequently washed and stained with the secondary antibody, goat anti-human IgG conjugated with Alexa Fluor 647 (AF647, Life Technologies), at 4° C. for 30 min, for the detection of Fc-GDF15 binding. Cells from the same batch of transfection were also stained with an Fc isotype negative control, and with FITC-labeled anti-flag antibody (Sigma) for the detection of cell surface expression, and DAPI for live/dead staining. The stained cells were analyzed on BD Fortessa LSR.

[3] = target: T3, N-terminally flag tagged full-length GFRα2 on transiently transfected HEK293F cells (Homo sapiens (Human), UniProt O00451 22-444); assay: FACS on transfected HEK293F cells
T3 sequence: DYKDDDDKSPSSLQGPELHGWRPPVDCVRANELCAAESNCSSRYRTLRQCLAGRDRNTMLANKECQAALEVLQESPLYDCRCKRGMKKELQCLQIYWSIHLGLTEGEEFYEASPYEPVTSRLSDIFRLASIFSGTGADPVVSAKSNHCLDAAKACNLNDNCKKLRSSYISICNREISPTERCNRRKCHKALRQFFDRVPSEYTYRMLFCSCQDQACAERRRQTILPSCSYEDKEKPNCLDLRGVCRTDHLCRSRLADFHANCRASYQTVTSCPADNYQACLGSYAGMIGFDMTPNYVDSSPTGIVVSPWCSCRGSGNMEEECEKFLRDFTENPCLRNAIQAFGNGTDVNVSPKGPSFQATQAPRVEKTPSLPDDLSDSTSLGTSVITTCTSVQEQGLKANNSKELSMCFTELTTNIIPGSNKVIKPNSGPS
Procedure: as §1

[4] = target: T4, N-terminally flag tagged full-length GFRα1 on transiently transfected HEK293F cells (Homo sapiens (Human), UniProt P56159 25-429); assay: FACS on transfected HEK293F cells
T4 sequence: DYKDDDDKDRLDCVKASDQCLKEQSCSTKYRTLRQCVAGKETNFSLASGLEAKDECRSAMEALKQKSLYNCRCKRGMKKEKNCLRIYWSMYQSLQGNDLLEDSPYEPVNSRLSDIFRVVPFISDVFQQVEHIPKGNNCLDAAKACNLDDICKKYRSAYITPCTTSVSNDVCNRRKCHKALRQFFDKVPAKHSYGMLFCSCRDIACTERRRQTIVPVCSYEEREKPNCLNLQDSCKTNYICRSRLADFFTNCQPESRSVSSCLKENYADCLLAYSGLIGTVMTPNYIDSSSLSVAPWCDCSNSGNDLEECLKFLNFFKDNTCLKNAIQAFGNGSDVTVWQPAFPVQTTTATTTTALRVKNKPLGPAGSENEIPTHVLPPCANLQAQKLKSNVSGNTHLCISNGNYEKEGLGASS
Procedure: as §1

[5] = target: T5, N-terminally flag tagged full-length GFRα4 on transiently transfected HEK293F cells (Homo sapiens (Human), UniProt Q9GZZ7 21-278); assay: FACS on transfected HEK293F cells
T5 sequence: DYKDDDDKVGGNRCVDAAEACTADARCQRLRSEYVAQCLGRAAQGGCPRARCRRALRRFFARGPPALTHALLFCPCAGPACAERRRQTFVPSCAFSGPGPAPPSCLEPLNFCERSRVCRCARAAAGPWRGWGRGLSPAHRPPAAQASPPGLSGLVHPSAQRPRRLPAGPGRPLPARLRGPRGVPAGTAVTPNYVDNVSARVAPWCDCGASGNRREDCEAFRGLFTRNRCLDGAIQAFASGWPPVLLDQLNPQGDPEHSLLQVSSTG
Procedure: as §1

B1: heterodimeric Fc-GDF15 fusion molecule (Fc fusion)
chain 1: CPPCPAPEAAGGPSVFLFPPKPKDTLMISRTPEVTCVVVDVSQEDPEVQFNWYVDGVEVHNAKTKPREEQFNSTYRVVSVLTVLHQDWLNGKEYKCKVSNKGLPSSIEKTISKAKGQPREPQVYTLPPSQEEMTKNQVSLSCAVKGFYPSDIAVEWESNGQPENNYKTTPPVLDSDGSFFLVSRLTVDKSRWQEGNVFSCSVMHEALHNHYTQKSLSLSLGKGSGGGARNGDHCPLGPGRCCRLHTVRASLEDLGWADWVLSPREVQVTMCIGACPSQFRAANMHAQIKTSLHRLKPDTVPAPCCVPASYNPMVLIQKTDTGVSLQTYDDLLAKDCHCI
chain 2: CPPCPAPEAAGGPSVFLFPPKPKDTLMISRTPEVTCVVVDVSQEDPEVQFNWYVDGVEVHNAKTKPREEQFNSTYRVVSVLTVLHQDWLNGKEYKCKVSNKGLPSSIEKTISKAKGQPREPQVYTLPPSQEEMTKNQVSLWCLVKGFYPSDIAVEWESNGQPENNYKTTPPVLDSDGSFFLYSRLTVDKSRWQEGNVFSCSVMHEALHNHYTQKSLSLSLGK
notes: also called Fc-GDF15 ligand
- EC50 [1]: 0.258 nM
- binding result [2]: no binding (tested: 5 µg/ml)
- binding result [3]: no binding (tested: 5 µg/ml)
- binding result [4]: no binding (tested: 5 µg/ml)
- binding result [5]: no binding (tested: 5 µg/ml)
